B1: Savinase: extracellular alkaline protease from Bacillus lentus (Uniprot P29600), SEQ ID NO: 6; Novozymes stock, intein unmodified reference enzyme (protein, listed as Bacillus lentus)
chain: MKKPLGKIVASTALLISVAFSSSIASAAEEAKEKYLIGFNEQEAVSEFVEQVEANDEVAILSEEEEVEIELLHEFETIPVLSVELSPEDVDALELDPAISYIEEDAEVTTMAQSVPWGISRVQAPAAHNRGLTGSGVKVAVLDTGISTHPDLNIRGGASFVPGEPSTQDGNGHGTHVAGTIAALNNSIGVLGVAPSAELYAVKVLGASGSGSVSSIAQGLEWAGNNGMHVANLSLGSPSPSATLEQAVNSATSRGVLVVAASGNSGAGSISYPARYANAMAVGATDQNNNRASFSQYGAGLDIVAPGVNVQSTYPGSTYASLNGTSMATPHVAGAAALVKQKNPSWSNVQIRNHLKNTATSLGSTNLYGSGLVNAEAATR
modifications: (1)..(380) Savinase P29600

Legend:
[1] = Formulation protocols and long term stability in 60% Detergent-1 under accelerated ageing; type: physicochemical; settings: 1M KCl, sequential mixing of NI and IC into 60% Detergent-1
Procedure: FIG. 12 illustrates comparison of alternative protocols to detergent formulate NI and IC and evaluated formulations for long term stability. Two formulation protocols as follows were compared: 1) formulation by sequential mixing of unsalted NI and IC to the detergent (detergent+NI+IC) and 2) formulation of KCl stabilized (NI+IC) premix to detergent. Detergent-1 was used at 60% (v/v) in two formats, either without supplement (−), or KCl supplement was added to 1M final concentration (+). Purified NI and IC were each used at benchmarking conc. to 1% (v/v) Savinase, at 38.1 μmolar concentration each. (NI+IC) premix was prepared and formulated to the detergent essentially as described in Example 7. Formulations were stored at 37° C. under accelerated ageing conditions and storage stabilities were tested by assaying retention of dilution inducible iProtease activity over 8 weeks at t=0, 1, 3, 6 and 8 weeks in storage. Dilution inducible activity was assayed in sequential dilutions to assay buffer, from 40- to 5120-fold dilutions as described in Example 7. iProtease activities at the 2 min time point reads of the 1:1280-fold dilutions were normalized to dilution induced iProtease activity of the (NI+IC) premix in detergent without salt at t=0 and were plotted.

[2] = Protease activity of KCl stabilized (NI+IC) premix and Savinase assayed in KCl; type: biochemical; settings: formulated to 1M KCl aqueous buffer, diluted in KCl
Procedure: iProtease activity was benchmarked to 1% (v/v) Savinase. Formulation of (NI+IC) and Savinase to 1M KCl aqueous buffer was the same as in Example 1, but enzyme activity was assayed in 2M KCl as follows: In a clear flat-bottomed half-volume 96 well plate, row A wells were preloaded with […] pH˜9.0, 50 μl 4 M KCl, and 35 μL H2O. Rows B-H were preloaded with 5 μl 1×BR buffer pH˜9.0, 25 μL 4 M KCl, and 20 μL H2O. 5 μl (NI+IC) formulation was added to row A, mixed by pipetting, then 50 μL of this 20× diluted sample was added to the 50 μl salt, buffer, and water in row B and mixed. […] This process of 2× serial dilutions was repeated for rows C-H. All samples were diluted an addition 2× by adding 50 μL 500 μM suc-FAAF-pNA (in 20% DMSO) substrate, yielding samples diluted from 40× in row A to 5120× in row H. Protease activity was assayed by reading absorbance at 400 nm at 30° C. FIGS. 9A-9B illustrate that KCl stabilized (NI+IC) premix has no enzyme activity. FIG. 9A illustrates iProtease activity of the 80-fold diluted (NI+IC) premix. […].

[3] = Stability of dilution inducible protease activity in three detergents under accelerated ageing; type: physicochemical; settings: Savinase without the stabilizer (dialyzed), 37° C., up to 4 weeks
Procedure: Detergents were: Detergent-1, Detergent-2 and Detergent-3. For benchmarking 1% (v/v) Savinase was used, but instead of formulating the inhibitor stabilized form, the inhibitor was first removed by three steps of overnight dialysis of 0.5 mL Savinase against 5 L mTSB buffer at 4° C. using a Tube-O-Dialyzer Medi (4000 Da; GBiosciences). Volume of dialyzed Savinase in mTSB were adjusted to 1.5 mL, and 3 μL dialyzed aliquot treated with equal volume of 4M KCL was used to formulate 100 μL detergent to get 1% (v/v) of the Savinase. Sample handling was essentially the same as in Example 8, except that formulations were made to 65% detergents supplemented with KCL to 1M final conc.
Purified NI and IC were used at equimolar conc. to 1% (v/v) dialyzed Savinase, at […] concentration each. (NI+IC) premix in 2M KCl was prepared as described in Example 7, and formulations were made to 65% detergents supplemented with KCl to 1M final conc.
Detergent formulations were stored under accelerated ageing conditions at 37° C. Residual protease activities were assayed at five time points, at t=0, 1, 2, 3, and 4 weeks, in serial dilutions to assay buffer as described before. The 2 min reads of 1:2560-fold dilutions of each formulation was normalized to the t=0 as 100% and graphed. […]

[4] = Stability of stain removal activity in three detergents under accelerated ageing; settings: 37° C., up to 4 weeks, normalized to t=0
Procedure: Formulations made for Example 15 were stored under accelerated ageing conditions at 37° C., and were evaluated for stain removal activity at five time points, at t=0, 1, 2, 3, and 4 weeks in storage.
The blood/milk/ink stained fabric of EMPA 117 was used in wash tests as described in Example 15. FIG. 17 illustrates stain removal stability under accelerated ageing conditions in three detergents. Three replicate washes were performed from each formulation at each time point. Referring to this figure, white light reflectance of the washed EMPA117 fabrics were normalized to their corresponding t=0 samples and were graphed.

[5] = Suppression of protease activity in Detergent-1 formulations; type: biochemical; settings: formulations in Detergent-1

Row | Molecule | boost of dilution inducible iProtease activity by supplementing the detergent [1] | effect of 1M KCl on protease activity [2] | loss of initial enzyme activity [3] | stain removal activity after storage [4] | effect of Detergent-1 on protease activity [5]
1 | [Cl-].[K+] [KCl, potassium chloride] | approximately 3 fold | – | – | – | –
2 | B1 | – | did not inhibit protease activity | 25-70% | full stain removal activity | did not suppress

From patent publication US10731143B2, “Methods and compositions for stabilizing trans-splicing intein modified proteases” (AGRIVIDA, INC., priority 2014, dated 2020)
